Test results as given in publication PMC4462073, “Insights into the evolution of enzyme substrate promiscuity after the discovery of (βα)8 isomerase evolutionary intermediates from a diverse metagenome” (BMC Evolutionary Biology, 2015).

Substrate: NC(=O)c1ncn([C@@H]2O[C@H](COP(=O)(O)O)[C@@H](O)[C@H]2O)c1N=CN[C@@H]1O[C@H](COP(=O)(O)O)[C@@H](O)[C@H]1O
Test: purified protein
Assay type: biochemical, Acidimicrobium ferrooxidans

B1: HisA_Afer (Acidimicrobium ferrooxidans DSM 10331) (protein)
chain: MELVVAVDLLDGEAVRLRQGRFDAPRRFGDPRRYVEGALDAGARWFHVVDLDRARTPGDRRNADMVGDLIALVREAGGSVEVGGGVRTARDIAELLETGASRVVLGTALVEETLDELDPEHLVAALDYRRGDEGALEVVVSAWERSGGRRLLEASARLFARGVRTQLLTDVGRDGMASGPDLGTYQGLCEVVPVEVIASGGVASADDLAKLAAIRGARGAVWGAVVGTALLDGSLGFDEALSACRA
notes: codon-optimised synthetic gene in pET22b (NdeI/HindIII), expressed in E. coli, purified
- Km: 1.1 ± 0.2 µM
- kcat: 0.05 ± 0.001 s⁻¹
- kcat/Km: 45000 M⁻¹ s⁻¹
